Numbering of substitutions follows the chain as printed.

The record followed here is paper PMC11401214, “A new generation of nanobody research tools using improved mass spectrometry-based discovery methods” (The Journal of Biological Chemistry, 2024).

Among the targets are mouse IgG (mouse); goat IgG (goat); rabbit IgG (rabbit).
Holding throughout (test): SPR; Biacore 8K; antigen immobilised on CM5 chip by amine coupling at 1 ug/ml (tdTomato) or 5 ug/ml (GST, IgGs) in 10 mM sodium acetate pH 5.5; nanobody injected in single-cycle kinetics at 0.1-10 nM; 20 mM Na-Hepes pH 7.4, 150 mM NaCl, 0.05% Tween 20; Langmuir 1:1 model, RIgG-1 and GIgG-4 fit to a two-step binding model
Common to all, as to set-up: kon of step 1 (2-state binding model) / koff of step 1 (2-state binding model) / koff of step 2 (2-state binding model): unit not given here

B1: LaMIgG-8 (VHH)
VHH: QVQLVESGGGLVQAGGSLKLSCATSGFTFSTSVMNWFRQAPGKERDMVAFINPSGSTNYVDSVKGRFTISRDSTKNTVYLQMNSLKPEDTAVYYCQTRLLVDSGWRDYWGQGTQVTVS
A word on the Kd: it is the free concentration of one partner at which half of the binding sites on the other are occupied at equilibrium, for simple one-to-one binding. As to B1, the Kd in the assay with mouse IgG (mouse) amounted to 1.2 nM.

B2: LaMIgG-14 (VHH)
VHH: B1 VHH with K19R, T24A, D46E, N58H, T74A, M82L, L100F, D102G, S103A
In the assay with mouse IgG (mouse), B2 came in with a Kd of 0.21 nM.

B3: LaGIgG-4 (VHH)
VHH: DVQLVESGGGLVQAGGSLRLSCAASGITFSRSTMGWHRQAPGKRRELVASINAVGSTNYVPSVKGRFTISRDNAKNTVTLQMNSLEPEDTGVYYCVSDPYDDPRRYWGPGTQVTVS
As to B3, in the assay with goat IgG (goat), the Kd came to 0.82 nM, the koff of step 1 (2-state binding model) is 0.011, the koff of step 2 (2-state binding model) stood at 0.00033 and the kon of step 1 (2-state binding model) was found to be 2.2e+06. Also, the kon of step 2 (2-state binding model) with goat IgG (goat) worked out at 0.0018 s⁻¹.

B4: LaGIgG-12 (VHH)
VHH: QVQLVESGGGLVQAGGSLRLSCSASGRTLSTYAMGWFRQAPGKEREFVAVISRSGGSTHYVESVKGRFTIVRDNAKNTVYLQMDSLKPEDTAVYYCAVPKYTDYALSPEDFGSWGQGTQVTVS
Molecule B4 returned a Kd with goat IgG (goat) of 0.49 nM.

B5: LaMIgG-5 (VHH)
VHH: DVQLVESGGGSVQAGGSLRLSCAASGFIFSKDVMNWFRQAPGKERELVAFINPSGTTHYVDSVKGRFTISRDNVKSTVYLQMNDLKPDDTAVYYCQTRKFVGTTWRDYWGQGTQVTVS
In the assay with mouse IgG (mouse), B5 came in with a Kd of 0.42 nM.

B6: LaRIgG-1 (VHH)
VHH: QVQLAESGGGLVQPGGSLRLSCVVSGGTFGRYDMGWFRQAPGKEREFVAAISREVTTNYGDSVRGRFTISRDNAENTVHLLMNSLKPEDTAVYYCAADDAHRYSGTYYLSQDFRYTYWGQGTQVTVS
In the assay with rabbit IgG (rabbit), B6 returned a dissociation constant (Kd) of 0.36 nM, a koff of step 1 (2-state binding model) of 0.0034, a koff of step 2 (2-state binding model) of 0.00026 and a kon of step 1 (2-state binding model) of 890000. Besides, the kon of step 2 (2-state binding model) with rabbit IgG (rabbit) was 0.0026 s⁻¹.

B7: LaRIgG-7 (VHH)
VHH: DVQLVESGGGLVQTGGSLRLSCAASGRTFTTYDLAWFRQAPGKERECVAAVSRIGTTYYPDSVKGRFTISTDTAQNTVYLQMNSLKPEDTAVYYCASAKFGSRWIRAKTSEGNYDDWGRGTQVTVS
In turn, B7 gave a dissociation constant Kd with rabbit IgG (rabbit) of 0.053 nM.

B8: LaMIgG-9 (VHH)
VHH: QVQLVESGGGLVQAGGSLSLSCATSGRTGDLYAMAWFRQAPGAEREFVATVTAIGGATYYADSVKGRFTISASYARNMVYLQMNSLKPEDSAVYYCAASMKRVWPLHRSDEAEYWGQGTQVTVS
In the assay with mouse IgG (mouse), B8 displayed a Kd of 0.6 nM.

B9: LaRIgG-2 (VHH)
VHH: QVQLVESGGGLVQAGGSLRLSCVASGGTFSDWPKGWFRQAPGKEREFVAAINWNGSGTTYADSVKGRFTISRDNAKNAVYLEMNSLKPEDTAVYSCASTFGGIRSVGTNDYWGRGTQVTVS
As for B9, the equilibrium dissociation constant (Kd) with rabbit IgG (rabbit) is below 0.014 nM.
